1 molecule from PMC3341524 can be followed below.

The assay has as its target murine p35-HA alanine/serine-scan mutant A13 (mouse) (UniProt P43431). As to the kind of experiment: co-IP.

B1: murine Ebi3, triple-FLAG tagged (natural protein)
chain: YTETALVALSQPRVQCHASRYPVAVDCSWTPLQAPNSTRSTSFIATYRLGVATQQQSQPCLQRSPQASRCTIPDVHLFSTVPYMLNVTAVHPGGASSSLLAFVAERIIKPDPPEGVRLRTAGQRLQVLWHPPASWPFPDIFSLKYRLRYRRRGASHFRQVGPIEATTFTLRNSKPHAKYCIQVSAQDLTDYGKPSDWSLPGQVESAPHKP
As for B1, the decrease in IL-35 dimer formation against wild type was found to be 30%.
